Test results published in patent US20060147914A1 (Johns Hopkins, published 2006).

Molecular target: T1, native mGluR5 in detergent extracts of rat hippocampus (rat, UniProt P31424 21-1203, limits assumed)
T1 construct: Native protein in tissue lysate
Test: in vitro binding assay with detergent extracts of hippocampus
Protocol: 40 ml of beads were then incubated with lysate from one hippocampus for one hour at 4° C., washed three times with PBS, and bound mGluR5 was eluted by boiling in 3× loading buffer.

T1 sequence (P31424 21-1203 limits assumed): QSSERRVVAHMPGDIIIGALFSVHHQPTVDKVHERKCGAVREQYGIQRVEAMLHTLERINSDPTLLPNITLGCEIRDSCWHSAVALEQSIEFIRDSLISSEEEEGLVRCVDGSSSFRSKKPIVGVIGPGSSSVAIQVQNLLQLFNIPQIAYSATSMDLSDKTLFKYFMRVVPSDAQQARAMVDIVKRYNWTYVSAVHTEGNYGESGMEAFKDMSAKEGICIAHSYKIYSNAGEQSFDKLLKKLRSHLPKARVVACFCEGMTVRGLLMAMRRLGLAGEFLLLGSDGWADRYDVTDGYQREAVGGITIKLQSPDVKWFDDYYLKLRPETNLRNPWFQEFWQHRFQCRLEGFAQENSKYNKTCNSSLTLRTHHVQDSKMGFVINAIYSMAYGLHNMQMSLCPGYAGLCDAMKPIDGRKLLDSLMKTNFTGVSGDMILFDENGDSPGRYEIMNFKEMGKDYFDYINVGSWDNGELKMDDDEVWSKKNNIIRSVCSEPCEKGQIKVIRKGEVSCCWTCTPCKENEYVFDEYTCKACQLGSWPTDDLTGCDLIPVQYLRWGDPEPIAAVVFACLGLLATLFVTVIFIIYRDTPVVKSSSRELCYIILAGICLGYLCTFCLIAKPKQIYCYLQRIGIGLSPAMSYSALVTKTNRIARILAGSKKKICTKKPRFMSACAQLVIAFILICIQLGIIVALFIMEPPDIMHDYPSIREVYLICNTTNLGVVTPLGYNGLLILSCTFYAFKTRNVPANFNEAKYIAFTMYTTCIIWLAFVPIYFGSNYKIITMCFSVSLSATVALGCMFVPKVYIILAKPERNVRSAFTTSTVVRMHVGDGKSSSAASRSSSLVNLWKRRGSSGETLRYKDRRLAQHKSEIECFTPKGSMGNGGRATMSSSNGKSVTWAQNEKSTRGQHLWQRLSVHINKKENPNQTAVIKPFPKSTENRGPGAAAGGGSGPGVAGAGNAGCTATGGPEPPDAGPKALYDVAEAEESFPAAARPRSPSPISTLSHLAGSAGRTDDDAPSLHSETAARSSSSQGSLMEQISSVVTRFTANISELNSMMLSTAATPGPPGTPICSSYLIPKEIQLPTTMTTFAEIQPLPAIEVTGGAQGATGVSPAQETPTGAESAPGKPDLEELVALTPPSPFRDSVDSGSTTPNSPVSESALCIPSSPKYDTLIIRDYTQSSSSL

B1: GST-Homer fusion protein (rat Homer) used with hippocampal extracts (other)
chain: GEQPIFSTRAHVFQIDPNTKKNWVPTSKHAVTVSYFYDSTRNVYRIISLDGSKAIINSTITPNMTFTKTSQKFGQWADSRANTVYGLGFSSEHHLSKFAEKFQEFKEAARLAKEKSQEKMELTSTPSQESAGGDLQSPLTPESINGTDDERTPDVTQNSEPRAEPAQNALPFSHRYTFNSAIMIK
notes: also called Homer GST fusion protein; Homer GST-fusion protein; not shown: glutathione S-transferase (GST) fusion partner, bacterially expressed
B1: binds.
